Patent publication US20100092497A1, “METHODS OF IMMUNE OR HAEMATOLOGICAL ENHANCEMENT, INHIBITING TUMOUR FORMATION OR GROWTH, AND TREATING OR PREVENTING CANCER” (priority 2006, published 2010)

Tests used:
EL-4 target cells = assay: Anti-tumour cytolytic activity of splenocytes (CTL assay); type: cell-based, mouse; details: for increase in anti-tumour cytolytic activity of splenocytes compared to control mice: Example 1, day 77; for increase in anti-tumour cytolytic activity of splenocytes: Example 2, after paclitaxel
Experimental: Splenocytes were harvested 28 days following tumour cell injection, as specified. They were incubated at 37° C. with EL-4 target cells in graded E:T ratios in 96-well round-bottom plates. After a 4-hour incubation, 50 μl of supernatant was collected, and lysis was measured using the Cyto Tox 96 Assay Kit (Promega, Madison, Wis., USA). Background controls for non-specific target and effector cell lysis were included. After background subtraction, percentage of cell lysis was calculated using the formula: 100×(experimental-spontaneous effector-spontaneous target/maximum target-spontaneous target).

[1] = test system: EL-4 T cell thymic lymphoma; assay: EL-4 tumour challenge in mice fed experimental diets (tumour growth, rejection, response to paclitaxel); type: in vivo, C57BL/6 mice; details: for tumour response after paclitaxel: paclitaxel 30 mg/Kg i.p. at ~0.6 cm; for rank of efficacy in sensitising tumours to paclitaxel: diet 20 g Lf per 2.4 Kg plus paclitaxel 30 mg/Kg
IL-18 = details: as reported in WO 03/099323; cited from earlier work
[2] = 20 g Lf per 2.4 Kg diet in combination with paclitaxel treatment

B1: Fe-saturated Lf: Bovine lactoferrin of ~100% Fe saturation prepared with ferric nitrilo-triacetate (protein, UniProt P24627 20-708, looked up)
Lactotransferrin: APRKNVRWCTISQPEWFKCRRWQWRMKKLGAPSITCVRRAFALECIRAIAEKKADAVTLDGGMVFEAGRDPYKLRPVAAEIYGTKESPQTHYYAVAVVKKGSNFQLDQLQGRKSCHTGLGRSAGWIIPMGILRPYLSWTESLEPLQGAVAKFFSASCVPCIDRQAYPNLCQLCKGEGENQCACSSREPYFGYSGAFKCLQDGAGDVAFVKETTVFENLPEKADRDQYELLCLNNSRAPVDAFKECHLAQVPSHAVVARSVDGKEDLIWKLLSKAQEKFGKNKSRSFQLFGSPPGQRDLLFKDSALGFLRIPSKVDSALYLGSRYLTTLKNLRETAEEVKARYTRVVWCAVGPEEQKKCQQWSQQSGQNVTCATASTTDDCIVLVLKGEADALNLDGGYIYTAGKCGLVPVLAENRKSSKHSSLDCVLRPTEGYLAVAVVKKANEGLTWNSLKDKKSCHTAVDRTAGWNIPMGLIVNQTGSCAFDEFFSQSCAPGADPKSRLCALCAGDDQGLDKCVPNSKEKYYGYTGAFRCLAEDVGDVAFVKNDTVWENTNGESTADWAKNLNREDFRLLCLDGTRKPVTEAQSCHLAVAPNHAVVSRSDRAAHVKQVLLHQQALFGKNGKNCPDKFCLFKSETKNLLFNDNTECLAKLGGRPTYEEYLGTEYVTAIANLKKCSTSPLLEACAFLTR
modifications: iron-saturated (holo)
notes: Bovine lactoferrin of ~100% Fe saturation prepared with ferric nitrilo-triacetate
increase in anti-tumour cytolytic activity of splenocytes compared to control mice (EL-4 target cells; [2]): 6.5 fold | increase in anti-tumour cytolytic activity of splenocytes compared to control mice (EL-4 target cells; the one mouse which completely resisted the tumour challenge): 6 fold | increase in anti-tumour cytolytic activity of splenocytes (EL-4 target cells; 5 g diet): 6.7 fold | increase in anti-tumour cytolytic activity of splenocytes (EL-4 target cells; 25 g diet): 7 fold | increase in anti-tumour cytolytic activity of splenocytes (EL-4 target cells; 100 g diet): 1.5 fold | increase in anti-tumour cytolytic activity of splenocytes, agent by itself (EL-4 target cells; Example 4, high dose vitamin D (45.2 mg/Kg) by itself or Fe-saturated Lf): 1.9 fold | tumour response after paclitaxel in mice on Lf diet ([1]; Example 1, diet 20 g Lf per 2.4 Kg plus paclitaxel 30 mg/Kg i.p. at tumours ~0.6 cm): regressed to less than half their size within two weeks of administering paclitaxel, and disappeared altogether a week later | mice that completely rejected the tumour challenge ([1]; Example 1, diet with 20 g of Lf per 2.4 Kg, ten mice): one of ten | mice that completely rejected the tumour challenge ([1]; Example 2, 1 g Fe-Lf diet): one of ten | tumour growth rate compared to control diet ([1]; Example 2, 5 and 25 g per 2.4 Kg of diet): grew significantly (p<0.05 at days 35-49) more slowly | mice that completely rejected the tumour challenge ([1]; Example 2, 5 g Fe-Lf diet): two of ten | mice that completely rejected the tumour challenge ([1]; Example 2, 25 g Fe-Lf diet): three of ten | tumour response after paclitaxel ([1]; Example 2, 100 g per 2.4 Kg of diet): regressed over two weeks, but then re-grew | tumour response after paclitaxel ([1]; Example 2, all but the 100 g Fe-Lf diet (1, 5, 25 g per 2.4 Kg)): rapidly regressed and completely disappeared over the following three to four weeks | tumour growth rate compared to control diet ([1]; Example 2, lowest and highest doses (1 and 100 g per 2.4 Kg of diet)): did not differ greatly from that of mice fed the control diet

B2: native Lf: Bovine lactoferrin of greater than 90% purity from Fonterra, native Fe saturation (protein, UniProt P24627 20-708, looked up)
Lactotransferrin: APRKNVRWCTISQPEWFKCRRWQWRMKKLGAPSITCVRRAFALECIRAIAEKKADAVTLDGGMVFEAGRDPYKLRPVAAEIYGTKESPQTHYYAVAVVKKGSNFQLDQLQGRKSCHTGLGRSAGWIIPMGILRPYLSWTESLEPLQGAVAKFFSASCVPCIDRQAYPNLCQLCKGEGENQCACSSREPYFGYSGAFKCLQDGAGDVAFVKETTVFENLPEKADRDQYELLCLNNSRAPVDAFKECHLAQVPSHAVVARSVDGKEDLIWKLLSKAQEKFGKNKSRSFQLFGSPPGQRDLLFKDSALGFLRIPSKVDSALYLGSRYLTTLKNLRETAEEVKARYTRVVWCAVGPEEQKKCQQWSQQSGQNVTCATASTTDDCIVLVLKGEADALNLDGGYIYTAGKCGLVPVLAENRKSSKHSSLDCVLRPTEGYLAVAVVKKANEGLTWNSLKDKKSCHTAVDRTAGWNIPMGLIVNQTGSCAFDEFFSQSCAPGADPKSRLCALCAGDDQGLDKCVPNSKEKYYGYTGAFRCLAEDVGDVAFVKNDTVWENTNGESTADWAKNLNREDFRLLCLDGTRKPVTEAQSCHLAVAPNHAVVSRSDRAAHVKQVLLHQQALFGKNGKNCPDKFCLFKSETKNLLFNDNTECLAKLGGRPTYEEYLGTEYVTAIANLKKCSTSPLLEACAFLTR
increase in anti-tumour cytolytic activity of splenocytes compared to control mice (EL-4 target cells; [2]): 3.4 fold | rank of efficacy in sensitising tumours to paclitaxel ([1]; Example 1): 50% Fe-saturated Lf>native Lf>apoLf

B3: 50% Fe-saturated Lf: Bovine lactoferrin supplemented with Fe to ~50% saturation (protein, UniProt P24627 20-708, looked up)
Lactotransferrin: APRKNVRWCTISQPEWFKCRRWQWRMKKLGAPSITCVRRAFALECIRAIAEKKADAVTLDGGMVFEAGRDPYKLRPVAAEIYGTKESPQTHYYAVAVVKKGSNFQLDQLQGRKSCHTGLGRSAGWIIPMGILRPYLSWTESLEPLQGAVAKFFSASCVPCIDRQAYPNLCQLCKGEGENQCACSSREPYFGYSGAFKCLQDGAGDVAFVKETTVFENLPEKADRDQYELLCLNNSRAPVDAFKECHLAQVPSHAVVARSVDGKEDLIWKLLSKAQEKFGKNKSRSFQLFGSPPGQRDLLFKDSALGFLRIPSKVDSALYLGSRYLTTLKNLRETAEEVKARYTRVVWCAVGPEEQKKCQQWSQQSGQNVTCATASTTDDCIVLVLKGEADALNLDGGYIYTAGKCGLVPVLAENRKSSKHSSLDCVLRPTEGYLAVAVVKKANEGLTWNSLKDKKSCHTAVDRTAGWNIPMGLIVNQTGSCAFDEFFSQSCAPGADPKSRLCALCAGDDQGLDKCVPNSKEKYYGYTGAFRCLAEDVGDVAFVKNDTVWENTNGESTADWAKNLNREDFRLLCLDGTRKPVTEAQSCHLAVAPNHAVVSRSDRAAHVKQVLLHQQALFGKNGKNCPDKFCLFKSETKNLLFNDNTECLAKLGGRPTYEEYLGTEYVTAIANLKKCSTSPLLEACAFLTR
modifications: ~50% iron-saturated
increase in anti-tumour cytolytic activity of splenocytes compared to control mice (EL-4 target cells; [2]): 1.5 fold | rank of efficacy in sensitising tumours to paclitaxel ([1]; Example 1): 50% Fe-saturated Lf>native Lf>apoLf

B4: bovine lactoferrin: Single-chain iron-binding glycoprotein of 78 kDa present in bovine milk (protein, UniProt P24627 20-708, looked up)
Lactotransferrin: APRKNVRWCTISQPEWFKCRRWQWRMKKLGAPSITCVRRAFALECIRAIAEKKADAVTLDGGMVFEAGRDPYKLRPVAAEIYGTKESPQTHYYAVAVVKKGSNFQLDQLQGRKSCHTGLGRSAGWIIPMGILRPYLSWTESLEPLQGAVAKFFSASCVPCIDRQAYPNLCQLCKGEGENQCACSSREPYFGYSGAFKCLQDGAGDVAFVKETTVFENLPEKADRDQYELLCLNNSRAPVDAFKECHLAQVPSHAVVARSVDGKEDLIWKLLSKAQEKFGKNKSRSFQLFGSPPGQRDLLFKDSALGFLRIPSKVDSALYLGSRYLTTLKNLRETAEEVKARYTRVVWCAVGPEEQKKCQQWSQQSGQNVTCATASTTDDCIVLVLKGEADALNLDGGYIYTAGKCGLVPVLAENRKSSKHSSLDCVLRPTEGYLAVAVVKKANEGLTWNSLKDKKSCHTAVDRTAGWNIPMGLIVNQTGSCAFDEFFSQSCAPGADPKSRLCALCAGDDQGLDKCVPNSKEKYYGYTGAFRCLAEDVGDVAFVKNDTVWENTNGESTADWAKNLNREDFRLLCLDGTRKPVTEAQSCHLAVAPNHAVVSRSDRAAHVKQVLLHQQALFGKNGKNCPDKFCLFKSETKNLLFNDNTECLAKLGGRPTYEEYLGTEYVTAIANLKKCSTSPLLEACAFLTR
intestinal IL-18 levels compared to recombinant human lactoferrin (IL-18): lesser increase | serum levels of IL-18 (IL-18): did not increase

B5: apoLf: Bovine lactoferrin with Fe removed by citric acid chelation (protein, UniProt P24627 20-708, looked up)
Lactotransferrin: APRKNVRWCTISQPEWFKCRRWQWRMKKLGAPSITCVRRAFALECIRAIAEKKADAVTLDGGMVFEAGRDPYKLRPVAAEIYGTKESPQTHYYAVAVVKKGSNFQLDQLQGRKSCHTGLGRSAGWIIPMGILRPYLSWTESLEPLQGAVAKFFSASCVPCIDRQAYPNLCQLCKGEGENQCACSSREPYFGYSGAFKCLQDGAGDVAFVKETTVFENLPEKADRDQYELLCLNNSRAPVDAFKECHLAQVPSHAVVARSVDGKEDLIWKLLSKAQEKFGKNKSRSFQLFGSPPGQRDLLFKDSALGFLRIPSKVDSALYLGSRYLTTLKNLRETAEEVKARYTRVVWCAVGPEEQKKCQQWSQQSGQNVTCATASTTDDCIVLVLKGEADALNLDGGYIYTAGKCGLVPVLAENRKSSKHSSLDCVLRPTEGYLAVAVVKKANEGLTWNSLKDKKSCHTAVDRTAGWNIPMGLIVNQTGSCAFDEFFSQSCAPGADPKSRLCALCAGDDQGLDKCVPNSKEKYYGYTGAFRCLAEDVGDVAFVKNDTVWENTNGESTADWAKNLNREDFRLLCLDGTRKPVTEAQSCHLAVAPNHAVVSRSDRAAHVKQVLLHQQALFGKNGKNCPDKFCLFKSETKNLLFNDNTECLAKLGGRPTYEEYLGTEYVTAIANLKKCSTSPLLEACAFLTR
modifications: iron-free (apo)
notes: Bovine lactoferrin with Fe removed by citric acid chelation
increase in anti-tumour cytolytic activity of splenocytes compared to control mice (EL-4 target cells; [2]): 2.4 fold | rank of efficacy in sensitising tumours to paclitaxel ([1]; Example 1): 50% Fe-saturated Lf>native Lf>apoLf
